Here are results for 1 molecule from patent publication US6410319.

For this experiment, the target named is T1, CD20 (human) (UniProt P11836).
T1 sequence (looked up): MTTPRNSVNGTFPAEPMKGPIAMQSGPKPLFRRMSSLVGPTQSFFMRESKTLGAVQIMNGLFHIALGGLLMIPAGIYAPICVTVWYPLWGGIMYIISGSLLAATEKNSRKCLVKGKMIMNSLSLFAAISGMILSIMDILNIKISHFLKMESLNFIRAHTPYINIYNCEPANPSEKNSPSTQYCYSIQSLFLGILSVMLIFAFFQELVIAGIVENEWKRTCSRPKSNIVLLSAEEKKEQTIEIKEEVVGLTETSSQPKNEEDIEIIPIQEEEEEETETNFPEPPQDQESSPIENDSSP
Put plainly: cell-based or functional assay.

B1: anti-CD20 Leu-16 monoclonal antibody (antibody, from another filing, V domains shown)
VH: EVQLQQSGAELVKPGASVKMSCKASGYTFTSYNMHWVKQTPGQGLEWIGAIYPGNGDTSYNQKFKGKATLTADKSSSTAYMQLSSLTSEDSADYYCARSNYYGSSYWFFDVWGAGTTVTVSS
VL: DIVLTQSPAILSASPGEKVTMTCRASSSVNYMDWYQKKPGSSPKPWIYATSNLASGVPARFSGSGSGTSYSLTISRVEAEDAATYYCQQWSFNPPTFGGGTKLEIK
In turn, B1 came in with a decrease of IL-2 concentration in supernatants of Jurkat transfectants co-cultured with LCL of 60%.
